Publication PMC5542067
Like-named read-outs stand apart in the source and are kept apart here.

Assays:
CTCF ZF4-8 [1] = molecular target: T1, CTCF ZF4-8 (human, UniProt P49711 348-492); test: fluorescence polarization
T1 sequence: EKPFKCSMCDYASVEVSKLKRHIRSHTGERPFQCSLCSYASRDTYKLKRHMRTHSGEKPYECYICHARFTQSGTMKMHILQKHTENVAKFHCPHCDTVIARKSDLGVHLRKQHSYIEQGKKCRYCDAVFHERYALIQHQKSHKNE

CTCF ZF4-7 [2] = molecular target: T2, CTCF ZF4-7 (human, UniProt P49711 349-465); test: fluorescence polarization
T2 sequence: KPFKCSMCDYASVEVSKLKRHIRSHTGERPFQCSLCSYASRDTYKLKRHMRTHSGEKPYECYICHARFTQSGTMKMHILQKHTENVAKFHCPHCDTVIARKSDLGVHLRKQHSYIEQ

CTCF ZF3-7 [3] = molecular target: T3, CTCF ZF3-7 (human, UniProt P49711 321-465); test: fluorescence polarization
T3 sequence: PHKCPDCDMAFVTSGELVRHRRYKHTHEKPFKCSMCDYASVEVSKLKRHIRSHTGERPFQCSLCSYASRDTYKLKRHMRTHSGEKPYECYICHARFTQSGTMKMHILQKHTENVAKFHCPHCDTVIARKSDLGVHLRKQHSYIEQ

CTCF ZF3-7 [4] = molecular target: T3, CTCF ZF3-7; test: fluorescence polarization; remark: listed apart in the source
CTCF ZF4-7 [5] = molecular target: T2, CTCF ZF4-7; test: fluorescence polarization; remark: listed apart in the source
CTCF ZF4-7 [6] = molecular target: T2, CTCF ZF4-7; test: fluorescence polarization; remark: listed apart in the source
CTCF ZF3-7 [7] = molecular target: T3, CTCF ZF3-7; test: crystal structure
CTCF ZF4-7 [8] = molecular target: T2, CTCF ZF4-7; test: fluorescence polarization; remark: listed apart in the source
CTCF ZF4-7 [9] = molecular target: T2, CTCF ZF4-7; test: fluorescence polarization; remark: listed apart in the source
CTCF ZF4-8 [10] = molecular target: T1, CTCF ZF4-8; test: fluorescence polarization; remark: listed apart in the source

B1: CORE (dsDNA)
DNA 1: AGGACCAGCAGGGGGCGCA
DNA 2: TGCGCCCCCTGCTGGTCCT
- binding signal (CTCF ZF4-8 [1]): ~1 fold affinity vs ZF4-7 on CORE (similar)
- binding signal (CTCF ZF4-7 [2]): 1 fold (reference)
- binding signal (CTCF ZF3-7 [3]): ~4 fold higher affinity than without ZF3
- binding signal (CTCF ZF3-7 [4]): ~6 fold higher affinity than without ZF3

B2: H19 (dsDNA)
DNA 1: GTTGCCGCGTGGTGGCAG
DNA 2: CTGCCACCACGCGGCAAC
- binding signal (CTCF ZF4-7 [5]): ~6 fold lower affinity than CORE

B3: CORE A3G (dsDNA)
DNA 1: AGGACCGGCAGGGGGCGCA
DNA 2: TGCGCCCCCTGCCGGTCCT
- binding signal (CTCF ZF4-7 [6]): ~1 fold affinity vs CORE (indistinguishable)

B4: CORE crystal 17-mer (dsDNA)
DNA 1: GCCAGCAGGGGGCGCTA
DNA 2: TAGCGCCCCCTGCTGGC
- binding result (CTCF ZF3-7 [7]): binds

B5: CORE 5mC2 (dsDNA)
DNA 1: AGGACCAGCAGGGGGCGCA
DNA 2: TGCGCCCCCTGCTGGTCCT
modifications: 5mC at nt 6 of top strand (motif position 2)
- binding signal (CTCF ZF4-7 [8]): ~23 fold lower affinity than CORE

B6: CORE 5mC12 (dsDNA)
DNA 1: AGGACCAGCAGGGGGCGCA
DNA 2: TGCGCCCCCTGCTGGTCCT
modifications: 5mC at nt 16 of top strand (motif position 12)
- binding signal (CTCF ZF4-7 [9]): 1.5 fold higher affinity than CORE

B7: control (dsDNA)
DNA 1: AATGGACGAGTCATAGGAGA
DNA 2: TTCTCCTATGACTCGTCCAT
- binding signal (CTCF ZF4-8 [10]): ~10 fold higher affinity than without ZF8 on control
